Measured values as given in PMC8187860, “Substitution of a Surface-Exposed Residue Involved in an Allosteric Network Enhances Tryptophan Synthase Function in Cells” (Frontiers in Molecular Biosciences, 2021).
Positions count from the first letter of the chain named. In names and notes the source's numbering stands.

Tests used:
[1] = biological target: T1, Escherichia coli tryptophan synthase alpha subunit (αTS), A198W variant (E. coli, UniProt P0A877 1-268, A198W); test: ITC
T1 sequence: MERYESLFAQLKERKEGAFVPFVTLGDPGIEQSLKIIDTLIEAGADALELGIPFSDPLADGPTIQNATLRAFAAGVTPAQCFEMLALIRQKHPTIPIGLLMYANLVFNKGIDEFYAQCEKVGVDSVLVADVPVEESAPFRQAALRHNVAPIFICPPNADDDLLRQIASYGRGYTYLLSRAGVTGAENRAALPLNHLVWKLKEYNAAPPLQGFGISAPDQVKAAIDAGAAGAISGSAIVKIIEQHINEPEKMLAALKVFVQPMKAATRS

[2] = biological target: T2, Escherichia coli tryptophan synthase beta subunit (βTS) (E. coli, UniProt P0A879 1-397); test: ITC; αTS subunit (WT or A198W) binding to the βTS subunit; which protein was titrated, buffer and temperature are not told in the main text (Supplementary Figure 5); conditions: both partners purified
T2 construct: tryptophan synthase beta subunit (βTS), E. coli; No removal of the hexahistidine tag is mentioned; also called beta subunit of TS; source: E. coli BL21 (DE3*), purified (Ni-NTA, S200 size exclusion)
T2 sequence (looked up): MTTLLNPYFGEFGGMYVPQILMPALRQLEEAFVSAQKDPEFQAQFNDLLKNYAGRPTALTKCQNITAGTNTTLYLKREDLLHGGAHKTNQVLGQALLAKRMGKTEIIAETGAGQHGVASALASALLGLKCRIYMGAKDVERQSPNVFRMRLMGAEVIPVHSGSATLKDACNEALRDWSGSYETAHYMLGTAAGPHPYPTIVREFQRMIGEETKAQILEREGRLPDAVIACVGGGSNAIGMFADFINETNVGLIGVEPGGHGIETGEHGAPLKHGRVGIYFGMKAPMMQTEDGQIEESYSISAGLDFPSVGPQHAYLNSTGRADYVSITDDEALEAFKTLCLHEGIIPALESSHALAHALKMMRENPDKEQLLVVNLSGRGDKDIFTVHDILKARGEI

[3] = biological target: T2, Escherichia coli tryptophan synthase …; test: cell-based or functional assay

B1: Escherichia coli tryptophan synthase beta subunit (βTS) (enzyme)
chain: T2 sequence (looked up)
[1]
  Kd: 28 nM

B2: Escherichia coli tryptophan synthase alpha subunit (αTS), wild type (enzyme, E. coli, UniProt P0A877 1-268, looked up)
chain: T1 sequence with W198A
notes: tryptophan synthase alpha subunit (αTS, product of trpA), E. coli; Axe et al., 2014) for the construct and its purification; also called WT αTS; WT; source: E. coli BL21 (DE3*), purified as previously (Axe and Boehr, 2013; Axe et al., 2014; O'Rourke et al., 2019
[2]
  Kd: ~25 nM

B3: Escherichia coli tryptophan synthase alpha subunit (αTS), A198W variant (enzyme, E. coli, UniProt P0A877 1-268, looked up)
chain: T1 sequence
notes: tryptophan synthase alpha subunit (αTS, product of trpA), E. coli, with the substitution A198W; Made by QuikChange site-directed mutagenesis of the wild-type αTS plasmid; also called A198W αTS; source: E. coli BL21 (DE3*), purified as previously (Axe and Boehr, 2013; Axe et al., 2014; O'Rourke et al., 2019)
[3]
  kcat/KM of the full TS complex reaction (production of tryptophan from IGP, 290 nm; 50 µM α2β2 TS complex): 9900 M⁻¹ s⁻¹
  kcat/KM of the βTS assay in the presence of αTS (production of tryptophan from indole, 290 nm; 0.5 µM α2β2 TS complex): 190000 M⁻¹ s⁻¹
[2]
  Kd: ~25 nM
